Paper PMC10803816, “EGFR core fucosylation, induced by hepatitis C virus, promotes TRIM40-mediated-RIG-I ubiquitination and suppresses interferon-I antiviral defenses”

Experiments:
[1] = immunoblot of total EGFR; conditions: glycan lost; control: wild-type Flag-EGFR
[2] = RT-qPCR of HCV RNA, 48 h infection; conditions: glycan lost; control: EGFR KO Huh7 complemented with wild-type EGFR
[3] = confocal EGFR/Lamp1 colocalisation after EGF, Huh7; conditions: glycan lost; control: wild-type EGFR
[4] = target: T1, His6-SNAIL (UniProt O95863 1-264); assay: EMSA; increasing SNAIL; Beyotime EMSA kit GS005 per manufacturer; 8% native PAGE; buffer, salt, pH and temperature not stated; conditions: protein: recombinant; tags: His6 (pET28a); label: 5' FAM; blunt
[5] = target: T1, His6-SNAIL; assay: EMSA; text: SNAIL lost ability to bind mutant probe; legend and Methods leave open whether labeled or competitor; Beyotime EMSA kit GS005 per manufacturer; 8% native PAGE; buffer, salt, pH and temperature not stated; conditions: protein: recombinant; tags: His6 (pET28a); label: 5' FAM per Methods (legend also mentions mutant probe added at 300 nM); blunt
[6] = target: T1, His6-SNAIL; assay: competition; 10-fold excess (300 nM) unlabeled probe abolished binding to WT-FAM probe; Beyotime EMSA kit GS005 per manufacturer; 8% native PAGE; buffer, salt, pH and temperature not stated; conditions: protein: recombinant; tags: His6 (pET28a); blunt

T1 sequence (O95863 whole entry): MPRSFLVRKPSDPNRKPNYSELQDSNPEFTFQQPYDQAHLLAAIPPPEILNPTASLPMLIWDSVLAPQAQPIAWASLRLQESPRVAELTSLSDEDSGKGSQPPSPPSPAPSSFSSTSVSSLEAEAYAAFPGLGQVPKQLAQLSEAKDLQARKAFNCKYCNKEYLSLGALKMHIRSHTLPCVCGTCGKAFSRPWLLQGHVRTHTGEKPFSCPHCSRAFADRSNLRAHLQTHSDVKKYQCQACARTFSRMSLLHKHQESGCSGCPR

**Q.** With “Epidermal growth factor receptor (EGFR, ErbB1, HER1): N352Q” as the molecule, how does the expression_or_secretion [1] read?
**A.** Its expression_or_secretion is “no change”.

**Q.** What about the “other: viral replication” value [2] of the same molecule?
**A.** Its value is “decreases”.

**Q.** And the localisation_or_trafficking [3]?
**A.** Its localisation_or_trafficking is “decreases”.

B1: FUT8 promoter WT probe (-295 to -260) (dsDNA)
DNA 1: TACACTTCCTGACGTGGCAGGTGAGAGAGTGTGGGT
DNA 2: ACCCACACTCTCTCACCTGCCACGTCAGGAAGTGTA
**Q.** Does B1 bind [4]?
**A.** Result: binds

B2: FUT8 promoter Mut probe (dsDNA)
DNA 1: TACACTTCCTGACGTGAGAGGGGTCAGAGTGTGGGT
DNA 2: ACCCACACTCTGACCCCTCTCACGTCAGGAAGTGTA
**Q.** Does B2 bind [5]?
**A.** Result: no binding

B3: FUT8 promoter WT unlabeled competitor (dsDNA)
DNA 1: B1 DNA 1
DNA 2: B1 DNA 2
**Q.** Does B3 bind [6]?
**A.** Result: binds
